Source: publication PMC3326319

Tests used:
PhNob1Zn [1] = target: T1, PhNob1Zn (Pyrococcus horikoshii, UniProt O58440 121-161); assay: fluorescence anisotropy
T1 chain: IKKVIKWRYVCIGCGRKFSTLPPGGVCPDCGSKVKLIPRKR

PhNob1 = target: T2, PhNob1 (Pyrococcus horikoshii, UniProt O58440 1-161); assay: fluorescence anisotropy
T2 sequence: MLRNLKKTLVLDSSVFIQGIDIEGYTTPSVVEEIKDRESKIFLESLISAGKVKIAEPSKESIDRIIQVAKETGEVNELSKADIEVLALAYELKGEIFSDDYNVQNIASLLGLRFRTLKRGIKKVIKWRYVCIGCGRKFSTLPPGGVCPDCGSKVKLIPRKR

PhNob1Zn [2] = target: T1, PhNob1Zn; assay: NMR titration

B1: PhH40short (H40S) (structured_RNA)
RNA: CCGGCGAUAAGCCGG
B1 showed a Kd (PhNob1Zn [1]) of 3100 ± 200 nM.

B2: ScH16 (stabilized) (structured_RNA)
RNA: UACAGGGCCCAUUGGGGCCCUGUA
B2 showed a Kd (PhNob1Zn [1]) of 1500 ± 200 nM.

B3: PhH40 (helix 40) (structured_RNA)
RNA: GACUGCCGGCGAUAAGCCGGAGGAAG
Work on B3 yielded a Kd (PhNob1) of 2000 ± 100 nM and a Kd (PhNob1Zn [1]) of 2300 ± 100 nM.

B4: PhH40 unlabeled (gel filtration, NMR) (structured_RNA)
RNA: GACUGCCGGCGAUAAGCCGGAGGAAG
B4 was tested, and the Kd (PhNob1Zn [2]) was less than 1000 nM.
